Results taken from the supplement of paper PMC10567573.

B1: GAGE1 (parent)
chain: RPRRYVQPPEMIGPMRPEQFSDEV
B2: POMT2 (parent)
chain: LRGGGQVLLGWTLHYFPFFLMGRV

Variants of: B1
Experiment: protein stability index of a GFP-peptide fusion (GPS, HEK-293T) (PSI 1-6); higher = more stable
Conditions: c terminus: a fixed tail appended
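Also: lentivirally expressed fusions sorted by FACS into six bins by GFP to DsRed ratio, PSI derived from sequencing read proportions per bin multiplied by bin number.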

Variant	protein stability index
V24S	4.21
V24R	4.47
V24D	4.09
V24M	3.74
V24E	4.17
V24G	3.58
V24Q	4.18
V24C	3.35
V24A	4.52
V24Y	3.94
V24W	4.01
V24K	4.5
V24P	4.06
V24T	4.17
V24F	2.74
V24N	4.2
V24H	4.46

Variant	protein stability index
V24I	3.51
V24L	3.74
E23T	3.75
E23Q	3.63
E23N	3.42
E23S	3.68
E23V	3.77
E23H	3.6
E23I	2.92
E23R	3.85
E23Y	2.76
E23M	2.85
E23W	2.95
E23L	3.08
E23K	3.65
E23P	3.63

Variants of: B2
Experiment: as above
Conditions: c terminus: a fixed tail appended

Variant	protein stability index
G4R	1.38
G4W	1.47
G4L	1.27
G4K	3.19
G4F	1.41
G4M	3.71
G4D	2.16
G4V	2.52
G4H	3.5
G4Y	2.25
G3Y	4.15
G3R	2.12
G3I	2.59
G3W	5.12
G3N	2.48
G3Q	2.94
G3S	1.68
G3M	1.82
F16T	3.4
F16E	3.44
F16H	3.2
F16Q	2.26
F16G	3.06

Variant	protein stability index
H14Y	3.36
H14P	2.43
H14D	4.14
H14F	3.28
T12H	2.35
T12V	3.16
T12Y	2.7
T12A	2.59
T12I	3.35
T12S	2.1
T12L	1.93
L13W	3.5
L13S	3.02
L13C	1.51
L13E	2.93
L13D	1.29
L13P	2.64
L8N	3
L8A	2.97
L8Y	3.82
L8R	3.14
L8V	1.64
Q6I	2.01

Variant	protein stability index
Q6P	3.06
Q6K	2.02
Q6F	2.24
Q6D	1.69
Q6L	2.48
W11A	1.93
W11N	4.22
W11C	3.48
W11K	3.25
W11Y	1.2
W11T	2.09
W11R	2.67
W11E	1.74
W11H	2.1
W11S	1.38
W11M	1.04
W11Q	3
L1F	3.06
L1G	2.56
L1R	3.02
L1A	3.17
L1S	2.23
L1D	2.89

Variant	protein stability index
L1E	2.74
L9Q	1.61
L9A	3.06
L9H	1.91
L9F	2.91
L9E	1.89
L9C	1.75
L9P	2.59
L9T	2.66
L9N	2.66
L9M	3.23
G10Y	3.25
G10F	3.45
G10V	2.29
G10P	3.23
G10D	3.44
G10Q	3.64
G10W	2.32
G10S	3.85
G10T	2.89
G10I	1.92
G10N	1.97
G5Y	3.6

Variant	protein stability index
G5E	3.02
G5I	4.58
G5T	2.95
G5N	3.2
G5D	3.03
V7K	4.17
V7Y	4.03
V7W	2.36
V7C	1.26
V7G	3.97
V7A	2.26
V7T	1.32
V7M	2.07
V7Q	1.21
V7R	2.7
R2W	3.48
R2P	2.6
R2Q	1.79
R2T	1.36
R2L	2.63
R2Y	2.82
R2K	2.04
R2S	2.59

Variant	protein stability index
R2D	3.49
P17M	4.38
P17C	2.18
P17D	4.4
P17V	2.54
P17R	3.18
P17N	2.79
P17K	2.55
P17Q	4.16
P17I	2.09
P17F	2.59
P17E	1.35
Y15W	2.28
Y15E	2.31
Y15T	1.39
Y15I	4.09
Y15R	2.02
Y15K	2.92
Y15D	1.72
